Results on 26 molecules are retold here after US20170267768A1 (University of California, published 2017).

Residue numbers refer to the chain shown, from its start.

The target of assay [1] is T1, human EphA2 on OVCAR-3 and U-251 cells (human, UniProt P29317 24-976).
T1 construct: whole, on cells; also called EphA2 receptors
As to the kind of experiment: CLIA: scFv-decorated fluorescent NTA(Ni) liposomes on EphA2-expressing cells, FACS. The protocol: To test the anti-EphA2 activity of these variant scFvs, the binding and internalization of liposomes externally decorated with these Abs was assayed on cell lines expressing EphA2. A rapid high-throughput Chelated Ligand-induced Internalization Assay (CLIA) (Nielsen et al., BMC immunology, 2006, 7:24) was used to screen anti-EphA2-scFv-targeted liposomes for binding and internalization assessment. Two cell lines that express high levels of EphA2 receptors, OVCAR-3 and U-251, were tested, as well as a murine EphA2-expressing mouse cell line, CT-26 (to test whether cross-reactivity to murine EphA2 was retained by the engineered scFvs). Via nickel-binding by each scFv's c-terminal His6 tag, the scFvs were bound to fluorescently labeled liposomes comprising an NTA(Ni) conjugated lipid (Dil5-NTA liposomes).
Dil5-NTA liposomes were prepared as follows. The NTA conjugated lipid, DOD-Tri-NTA, was synthesized as described in Huang et al., Bioconjugate chemistry, 2006, vol. 17, p. 1592-1600. Hydrogenated soy phosphatidylcholine (HSPC), cholesterol, methoxy-PEG(2000)-distearoylphosphatidylethanolamine (PEG-DSPE), DOD-tri-NTA, and a fluorescent lipid dye, Dil5, (ThermoFisher® Invitrogen® Molecular Probes™, cat. # D12370) were combined in a chloroform solution at the molar ratio of 100:66.7:5:0.5:0.3 respectively and the solution evaporated under vacuum to dryness forming a lipid film. The film was hydrated in HEPES-buffered physiological saline (“HBS-6.5”—5 mM HEPES, 144 mM NaCl pH 6.5) at 68° C., the resulting lipid suspension was subjected to several cycles of freezing (dry ice-acetone) and thawing (68C), and extruded through two stacked polycarbonate membranes (Whatman Nuclepore, USA) with the pore size of 200 nm (6 times) and 100 nm (10 times) using Lipex™ thermobarrel extruder (Northern Lipids, Canada). This protocol typically produces unilamellar vesicles with the z-average size of 100-110 nm and polydispersity index less than 0.1. The extruded liposomes were chilled to room temperature, purified by gel-chromatography on a Sephadex® G-75 (GE Healthcare) column eluted with HBS-6.5, and then sterilized by passage through a 0.2-μm filter. The concentration of liposomal phospholipid was then determined after acid digestion using spectrophotometric phosphomolybdate method.

The target of assay [2] is T2, His6-tagged recombinant human EphA2 protein (human, UniProt P29317 25-534).
T2 construct: also called his-tagged recombinant, human EphA2; human EphA2 with c-terminal His6
T2 sequence (P29317 25-534 limits assumed): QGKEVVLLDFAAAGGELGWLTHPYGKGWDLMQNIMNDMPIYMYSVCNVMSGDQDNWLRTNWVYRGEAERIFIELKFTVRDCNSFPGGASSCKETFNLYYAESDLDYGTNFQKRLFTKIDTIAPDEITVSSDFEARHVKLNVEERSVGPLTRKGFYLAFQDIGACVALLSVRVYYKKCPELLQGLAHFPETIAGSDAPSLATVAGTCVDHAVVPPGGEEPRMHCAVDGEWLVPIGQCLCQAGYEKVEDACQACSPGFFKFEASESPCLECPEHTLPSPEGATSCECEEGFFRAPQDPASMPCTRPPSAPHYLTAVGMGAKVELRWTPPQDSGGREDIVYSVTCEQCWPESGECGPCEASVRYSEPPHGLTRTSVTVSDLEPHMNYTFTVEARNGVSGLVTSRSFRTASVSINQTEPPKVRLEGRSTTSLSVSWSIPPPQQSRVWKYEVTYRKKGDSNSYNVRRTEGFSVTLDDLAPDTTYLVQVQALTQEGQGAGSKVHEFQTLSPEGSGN
As to the kind of experiment: BLI (Octet Red 96); His6-EphA2 on anti-His sensors; scFv-PEG-DSPE conjugate at 2.5 ug/ml after thermal stress. The text has this: (§1) A nucleic acid encoding human EphA2 with c-terminal His6 appended was cloned into expression vector pCEP4 (Invitrogen® # V044-50) and transiently expressed in FreeStyle™ 293 cells (Invitrogen® #K900001) following polyethylenenimine transfection. The His6-tagged recombinant human EphA2 protein was purified from the cell culture medium using Ni-NTA Sepharose™ resin (Quiagen®, USA). Anti-His sensors for the fortéBIO® Octet Red 96 system (fortéBIO®-Pall® #18-5116) were coated with his-tagged recombinant, human EphA2 at concentration of 10 μg/ml protein for 300 sec, and a background run was carried out in PBS for 60 sec. For scFv-PEG-DSPE conjugates, the sensors were then incubated with 2.5 μg/ml (Study 1) or 4.0 μg/ml (Study 2) of the conjugate in PBS, pH 7.4, and the slopes of association curves were determined between 3-13 seconds of incubation, corrected for the buffer-only background, and compared across the variants. ScFv-linked liposomes were incubated with the sensors in PBS at 0.025 mM of liposome phospholipid, the slopes of the association curves were determined between 3-20 seconds of incubation, corrected for the buffer-only background, and compared across the variants.
(§2) Results are shown below in Table 6, in which column A gives scFv identifiers; column B indicates percent yield of scFv/lipopolymer linker conjugates; column C gives percent scFv-conjugate (not liposome-bound) EphA2 binding on-rate; column D gives percent scFv-conjugated-liposome EphA2 binding on-rate; and columns E (Study 1) and F (study 2) give percent antigen binding on-rate remaining in the scFv-conjugate (not liposome-bound) following thermal stress.

The target in assay [3] is T2, His6-tagged recombinant human EphA2 …. Put plainly: BLI (Octet Red 96); His6-EphA2 on anti-His sensors; slope of association curve of scFv-PEG-DSPE conjugate; TS1C printed as 100.
Excerpt: as §1, §2

For assay [4] the target is unchanged. As to the kind of experiment: BLI (Octet Red 96); His6-EphA2 on anti-His sensors; scFv-PEG-DSPE conjugate at 4.0 ug/ml after thermal stress.
Excerpt: as §1, §2
(In BLI a coated tip is dipped into the sample, and binding shifts an interference pattern.)

The target is the same in assay [5]. Put plainly: BLI (Octet Red 96); His6-EphA2 on anti-His sensors; slope of association curve of scFv-linked liposomes at 0.025 mM phospholipid; TS1C printed as 100.
Excerpt: as §1, §2

T1 sequence (P29317 24-976): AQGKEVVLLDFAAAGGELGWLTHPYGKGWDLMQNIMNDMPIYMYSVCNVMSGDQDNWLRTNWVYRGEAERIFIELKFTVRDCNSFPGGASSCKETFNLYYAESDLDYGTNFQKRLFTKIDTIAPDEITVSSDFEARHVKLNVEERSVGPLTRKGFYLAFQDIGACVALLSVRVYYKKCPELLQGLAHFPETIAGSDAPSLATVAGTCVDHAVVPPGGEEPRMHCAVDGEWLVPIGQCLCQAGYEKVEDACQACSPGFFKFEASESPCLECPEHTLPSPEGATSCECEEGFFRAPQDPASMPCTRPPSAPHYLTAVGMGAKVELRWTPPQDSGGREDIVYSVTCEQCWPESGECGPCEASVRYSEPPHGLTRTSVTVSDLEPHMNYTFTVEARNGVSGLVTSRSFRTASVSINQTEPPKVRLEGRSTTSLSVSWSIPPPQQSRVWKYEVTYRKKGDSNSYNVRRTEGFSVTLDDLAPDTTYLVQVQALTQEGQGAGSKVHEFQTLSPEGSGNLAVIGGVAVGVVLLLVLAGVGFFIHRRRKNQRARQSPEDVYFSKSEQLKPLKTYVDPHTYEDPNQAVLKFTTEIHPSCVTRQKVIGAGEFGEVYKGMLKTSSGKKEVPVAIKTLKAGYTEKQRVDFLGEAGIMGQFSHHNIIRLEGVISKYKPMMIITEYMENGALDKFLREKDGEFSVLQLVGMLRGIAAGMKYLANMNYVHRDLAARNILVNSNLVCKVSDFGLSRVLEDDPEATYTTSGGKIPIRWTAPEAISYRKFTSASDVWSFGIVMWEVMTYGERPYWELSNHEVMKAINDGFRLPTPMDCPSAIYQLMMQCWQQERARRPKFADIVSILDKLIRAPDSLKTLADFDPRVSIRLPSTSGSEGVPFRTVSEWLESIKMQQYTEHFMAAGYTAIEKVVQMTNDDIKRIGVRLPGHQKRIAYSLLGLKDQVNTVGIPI

B1: scFv-19 (scFv)
scFv: QVQLVQSGGGLVQPGGSLRLSCAASGFTFSSYAMHWVRQAPGKGLEWVSVISPPGHNTYYADSVKGRFTISRDNSKNTLYLQMNSLRAEDTAVYYCARASVGATGPFDIWGQGTLVTVSSASTGGGGSGGGGSGGGGSGGGGSSSELTQPPSVSVAPGQTVTITCQGDSLRSYYASWYQQKPGTAPKLLIYGENNRPSGVPDRFSGSSSGTSASLTITGAQAEDEADYYCNSRDSSGTHLTVFGGGTKLTVLG
On to B1, for which the binding result in assay [1] is “binds”.

B2: scFv-3 (scFv)
scFv: B1 scFv with S49T, P54D
In the case of B2, the binding result in assay [1] is recorded as “binds”.

B3: scFv-2 (scFv)
scFv: B1 scFv with P54A, H56R, T58K
Turning to B3, the binding result in assay [1] is recorded as “binds”.

B4: scFv-20 (scFv)
scFv: B1 scFv with S49T, P53H, P54D, H56T
Consider B4, for which the binding result in assay [1] is on record as “binds”.

B5: scFv-17 (scFv)
scFv: B1 scFv with S49T, H56S, T58K
For the molecule B5, in assay [1], the binding result is recorded as “binds”.

B6: scFv-8 (scFv)
scFv: B1 scFv with S49T, P54S
Regarding B6, in assay [1], the binding result is “binds”.

B7: scFv-18 (scFv)
scFv: B1 scFv with P54A, H56T
Regarding B7, in assay [1], the binding result was “binds”.

B8: scFv-5 (scFv)
scFv: B1 scFv with P53R, P54R, H56D, T58K
On to B8, for which the binding result in assay [1] is reported as “binds”.

B9: scFv-14 (scFv)
scFv: B1 scFv with S49T, P54A, H56P, T58K
For the molecule B9, in assay [1], the binding result is given as “binds”.

B10: scFv-16 (scFv)
scFv: B1 scFv with P53N, P54N
For B10, the binding result in assay [1] is on record as “binds”.

B11: scFv-15 (scFv)
scFv: B1 scFv with P54H, H56S, T58K
With B11, the binding result in assay [1] is given as “binds”.

B12: scFv-13 (scFv)
scFv: B1 scFv with S49T, P54T, H56A
For the molecule B12, in assay [1], the binding result is given as “binds”.

B13: scFv-9 (scFv)
scFv: B1 scFv with S49T, P54N
On to B13, for which, in assay [1], the binding result is “binds”.

B14: scFv-7 (scFv)
scFv: B1 scFv with P54A, H56P
As for B14, the binding result in assay [1] was “binds”.

B15: scFv-10 (scFv)
scFv: B1 scFv with V50A
B15: the binding result in assay [1] is given as “binds”.

B16: scFv-1 (scFv)
scFv: B1 scFv with P54A, H56N
As to B16, in assay [1], the binding result was “binds”.

B17: scFv-22 (scFv)
scFv: B1 scFv with S49T, P54G, H56P, T58K
As for B17, the binding result in assay [1] is listed as “binds”.

B18: scFv-11 (scFv)
scFv: B1 scFv with S49A, P53H, P54H, H56S
Consider B18, for which, in assay [1], the binding result was “binds”.

B19: scFv-4 (scFv)
scFv: B1 scFv with S49T, P54H, H56R, T58K
For B19, the binding result in assay [1] is “binds”.

B20: scFv-6 (scFv)
scFv: B1 scFv with P53N, P54N, T58K
As for B20, the binding result in assay [1] is listed as “binds”.

B21: scFv-21 (scFv)
scFv: B1 scFv with S49T, P53R, P54H, H56N, T58K
Turning to B21, the binding result in assay [1] is “binds”.

B22: scFv-8C (scFv)
scFv: QVQLVQSGGGLVQPGGSLRLSCAASGFTFSSYAMHWVRQAPGKGLEWVTVISPSGHNTYYADSVKGRFTISRDNSKNTLYLQMNSLRAEDTAVYYCARASVGATGPFDIWGQGTLVTVSSASTGGGGSGGGGSGGGGSGGGGSSSELTQPPSVSVAPGQTVTITCQGDSLRSYYASWYQQKPGTAPKLLIYGENNRPSGVPDRFSGSSSGTSASLTITGAQAEDEADYYCNSRDSSGTHLTVFGGGTKLTVLGGGSGGC
notes: also called clone 8
Turning to B22, the “percent antigen binding on-rate remaining in the scFv-conjugate following thermal stress (Study 1)” value in assay [2] was found to be 19.8%. In assay [3], the “percent scFv-conjugate (not liposome-bound) EphA2 binding on-rate” value was 113%. The “percent antigen binding on-rate remaining in the scFv-conjugate following thermal stress (Study 2)” value in assay [4] is 7.3%. In assay [5], the “percent scFv-conjugated-liposome EphA2 binding on-rate” value was found to be 133%.

B23: scFv-9C (scFv)
scFv: B22 scFv with S54N
notes: also called clone 9
Take B23: the “percent antigen binding on-rate remaining in the scFv-conjugate following thermal stress (Study 1)” value in assay [2] turned out to be 25.2%. For the same molecule, the “percent scFv-conjugate (not liposome-bound) EphA2 binding on-rate” value in assay [3] is 114%. Besides, the “percent antigen binding on-rate remaining in the scFv-conjugate following thermal stress (Study 2)” value in assay [4] was found to be 12.2%. For the same molecule, the “percent scFv-conjugated-liposome EphA2 binding on-rate” value in assay [5] was determined as 118%.

B24: scFv-13C (scFv)
scFv: B22 scFv with S54T, H56A
notes: also called clone 13
B24: in assay [2], the “percent antigen binding on-rate remaining in the scFv-conjugate following thermal stress (Study 1)” value worked out at 18.2%. The “percent scFv-conjugate (not liposome-bound) EphA2 binding on-rate” value in assay [3] turned out to be 105%. The “percent antigen binding on-rate remaining in the scFv-conjugate following thermal stress (Study 2)” value in assay [4] came out at 9%. The “percent scFv-conjugated-liposome EphA2 binding on-rate” value in assay [5] amounted to 120%.

B25: scFv-19C (scFv)
scFv: B22 scFv with T49S, S54P
As for B25, in assay [3], the “percent scFv-conjugate (not liposome-bound) EphA2 binding on-rate” value came out at 112%. Further, the “percent antigen binding on-rate remaining in the scFv-conjugate following thermal stress (Study 2)” value in assay [4] stood at 5.1%. Moreover, the “percent scFv-conjugated-liposome EphA2 binding on-rate” value in assay [5] was 129%.

B26: scFv-16C (scFv)
scFv: B22 scFv with T49S, P53N, S54N
B26: in assay [3], the “percent scFv-conjugate (not liposome-bound) EphA2 binding on-rate” value came out at 128%. Also, in assay [4], the “percent antigen binding on-rate remaining in the scFv-conjugate following thermal stress (Study 2)” value amounted to 4.6%. Moreover, in assay [5], the “percent scFv-conjugated-liposome EphA2 binding on-rate” value came out at 113%.
